Assay results: patent US20240360223A1 (DRAGONFLY THERAPEUTICS, published 2024)
Where two headings read alike, the source gives them in different places.

What was measured:
[1] = target: T1, human BAFF-R expressed on cells (human, UniProt Q96RJ3 1-184); assay: flow cytometry, RL cells
T1 construct: Cell surface BAFF-R, endogenous on B cell lines and primary B cells or overexpressed on isogenic CHO cells; also called hBAFF-R; hBAFF-R-CHO

[2] = target: T1, human BAFF-R expressed on cells; assay: flow cytometry, BJAB cells
[3] = target: T1, human BAFF-R expressed on cells; assay: flow cytometry, Raji cells
[4] = target: T1, human BAFF-R expressed on cells; assay: flow cytometry, Jeko-1 cells
[5] = target: T1, human BAFF-R expressed on cells; assay: flow cytometry, Rs4;11 cells
[6] = target: T1, human BAFF-R expressed on cells; assay: flow cytometry, SUDHL-6 cells
[7] = target: T1, human BAFF-R expressed on cells; assay: flow cytometry, CHO-hBAFF-R cells
[8] = target: T1, human BAFF-R expressed on cells; assay: flow cytometry, human BAFF-R CHO cells
Excerpt: Isogenic cell lines overexpressing human and cynomolgus BAFF-R on the backbone of CHO cell line were designed.

[9] = target: T1, human BAFF-R expressed on cells; assay: flow cytometry, human BAFF-R+ isogenic CHO
Excerpt: Isogenic cell lines overexpressing human and cynomolgus BAFF-R were developed from CHO cells.

[10] = target: T2, human NKG2D expressed on cells (human, UniProt P26718 1-216); assay: flow cytometry on KHYG-1 cells (no CD16), MFI
T2 construct: whole, on cells; also called NKG2D on KHYG-1 cells; NKG2D-positive NK cells and CD8+ T cells
T2 sequence (looked up): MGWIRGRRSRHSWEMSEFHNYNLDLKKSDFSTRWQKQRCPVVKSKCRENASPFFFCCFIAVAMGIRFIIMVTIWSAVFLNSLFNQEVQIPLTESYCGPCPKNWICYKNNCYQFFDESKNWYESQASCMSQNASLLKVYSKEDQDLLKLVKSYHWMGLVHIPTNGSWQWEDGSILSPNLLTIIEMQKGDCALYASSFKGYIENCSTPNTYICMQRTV

[11] = target: T1, human BAFF-R expressed on cells; assay: cell-based or functional assay
[12] = target: T1, human BAFF-R expressed on cells; assay: flow cytometry, BAFF-R-CHO cells
[13] = target: T3, cynomolgus monkey BAFF-R expressed on cells (cynomolgus monkey); assay: flow cytometry, cyno BAFF-R CHO cells
T3 construct: whole, on cells; also called cBAFF-R; cynoBAFF-R

[14] = target: T3, cynomolgus monkey BAFF-R expressed on …; assay: flow cytometry, cyno BAFF-R CHO cells; remark: listed apart in the source
[15] = target: T1, human BAFF-R expressed on cells; assay: flow cytometry, human BAFF-R CHO cells; remark: listed apart in the source
[16] = target: T1, human BAFF-R expressed on cells; assay: flow cytometry, human BAFF-R CHO cells; remark: listed apart in the source
[17] = target: T1, human BAFF-R expressed on cells; assay: blocking of BAFF-biotin on hBAFF-R CHO cells
[18] = target: T1, human BAFF-R expressed on cells; assay: blocking of BAFF-biotin on hBAFF-R CHO cells, flow cytometry
Protocol: Briefly, CHO cells expressing human BAFF-R were harvested, washed in cold FACS buffer, and seeded at a density of 100,000 cells per well. Test articles were diluted in FACS buffer, and 50 μL of diluted multispecific binding protein or mAb was added to cells, incubated on ice for 60 minutes, then washed with FACS buffer. […] Cells were incubated with 100 μL of 1:200 streptavidin-PE diluted in FACS buffer and incubated on ice for 30 minutes then washed with FACS buffer. Cells were then incubated in 100 μL of 1:1,000 dilution of live/dead dye in PBS for 15 minutes, then washed with FACS buffer, and fixed. After incubation, cells were washed with FACS buffer and resuspended in FACS buffer for analysis with flow cytometry. Median fluorescent intensity (MFI) of each sample and the secondary-only control was calculated. […] Data were fit to a four-parameter non-linear regression curve using GraphPad Prism.

[19] = target: T1, human BAFF-R expressed on cells; assay: flow cytometry, BAFF-R CHO cells; isogenic CHO cells; human and cynomolgus not told apart

B1: Parental mAb (AB1753) (antibody, V domains shown)
VH: EVQLVQSGGGVVQPGRSLRLSCAASGFTFSSYGMHWVRQAPGKGLEWVAVIWYDASNKYYGDSVKGRFTISRDNSKNTLYLQMNSLRDEDTAVYYCARRFTHLRGQYIEDYGLDVWGQGTTVTVSS
VL: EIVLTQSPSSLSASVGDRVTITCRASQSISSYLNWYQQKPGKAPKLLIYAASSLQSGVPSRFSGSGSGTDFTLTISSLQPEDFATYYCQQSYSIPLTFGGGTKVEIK
notes: also called parental BAFF-R specific antibody
[1]
  EC50: 0.14 nM
  Max FOB: 6 fold over background
[2]
  EC50: 0.18 nM
  Max FOB: 12 fold over background
[3]
  EC50: 0.1 nM
[4]
  EC50: 0.07 nM
  Max FOB: 5 fold over background
[5]
  EC50: 0.06 nM
  Max FOB: 3 fold over background
[6]
  EC50: 0.19 nM
  Max FOB: 13 fold over background
[7]
  EC50: 0.39 nM
  Max FOB: 123 fold over background
[8]
  EC50: 0.4 nM
  Max FOB: 57 fold over background
[9]
  EC50: 0.39 nM
  Max FOB: 123 fold over background
[10]
  binding result: no binding (tested: about 700 nM)

B2: AB0369 (bispecific antibody, V domains shown)
VH: EVQLVQSGGGVVQPGRSLRLSCAASGFTFSSYGMHWVRQAPGKCLEWVAVIWYDGSNKYYGDSVKGRFTISRDNSKNTLYLQMNSLRDEDTAVYYCARRFTMLRGLIIEDYGMDVWGQGTTVTVSS
VL: not shown
notes: also called AB0369-001
[11]
  KHYG-A-CD16Av mediated Cytolysis of Ramos cells EC50: 0.64 nM
[12]
  EC50: > 10 nM
[13]
  EC50: > 15 nM
[14]
  EC50: 7.11 nM
[15]
  EC50: > 10 nM
[16]
  EC50: 6.8 nM
[17]
  IC50: > 1000 nM
[18]
  IC50: 488 nM
[19]
  EC50: ~10 nM
